Experiment [1] concerns the target T1, recombinant SARS-COV-2 N protein (SARS-COV-2, UniProt P0DTC9 1-419).
T1 construct: also called nucleocapsid protein
Kind of experiment: SPR (UA Biotech); orientation not stated.

Experiment [2] has as its target T1, recombinant SARS-COV-2 N protein. Put plainly: direct ELISA, N protein coated at 5 µg/mL, pNPP colour development. A general note: In an ELISA, binding on a coated surface is turned into a signal by an enzyme label.
Experiment [3] shares this target. Put plainly: direct ELISA, N protein coated at 5 µg/mL, pNPP colour development for 90 min.

B1: SARS-COV-2 N protein-specific single-chain antibody H6 (scFv, V domains shown)
VH: EVKLAESGPELVRPGVSVKISCKGSGYTFTDYPMHWVKQSHAKSLEWIGVISTYSGNTNYNQKFRGKATMTVDKSSSTAYMELARLTSEDSAIYYCTRGGNYGFDPWGQGTTLTVSS
notes: also called H6 antibody; scFv H6; not shown: C-terminal tags from the pHENHi vector (c-myc and a His tag, with the NotI junction)
Take B1: in experiment [1], the Kd turned out to be 0.298 nM, the koff stood at 0.000286 s⁻¹ and the kon was 958000 M⁻¹ s⁻¹.

B2: H6-AP fusion protein (single-chain antibody H6 fused to alkaline phosphatase) (other)
chain: MAEVKLAESGPELVRPGVSVKISCKGSGYTFTDYPMHWVKQSHAKSLEWIGVISTYSGNTNYNQKFRGKATMTVDKSSSTAYMELARLTSEDSAIYYCTRGGNYGFDPWGQGTTLTVSSAKTTAPSVGGGGSGGGGSGGGGSDIQMTQSHKFLSTSVGDRVNITCKASQDVGTAVAWYQQKPGQSPKLLIYWASTRHTGVPDRFTGSGSGTDFTLTITNVQSEDLAEYFCQQYSSYPLTFGSGTKIEMKRAVDSSGSTSGSGKPGSGEGSTAAAARAPEMPVLENRAAQGDITAPGGARRLTGDQTAALRDSLSDKPAKNIILLIGDGMGDSEITAARNYAEGAGGFFKGIDALPLTGQYTHYALNKKTGKPDYVTSSAASATAWSTGVKTYNGALGVDIHEKDHPTILEMAKAAGLATGNVSTAELQDATPAALVAHVTSRKCYGPSATSEKCPGNALEKGGKGSITEQLLNARADVTLGGGAKTFAETATAGEWQGKTLREQAQARGYQLVSDAASLNSVTEANQQKPLLGLFADGNMPVRWLGPKATYHGNIDKPAVTCTPNPQRNDSVPTLAQMTDKAIELLSKNEKGFFLQVEGASIDKQDHAANPCGQIGETVDLDEAVQRALEFAKKEGNTLVIVTADHAHASQIVAPDTKAPGLTQALNTKDGAVMVMSYGNSEEDSQEHTGSQLRIAAYGPHAANVVGLTDQTDLFYTMKAALGDIAHHHHHH
notes: also called fusion protein H6-AP
Turning to B2, the “fold of OD405 nm over control group (blank blocked wells)” value in experiment [2] is 16 fold. In addition, the “fold of OD405 nm over control group (blank blocked wells) at 90 min” value in experiment [3] was found to be 31 fold.

One may read the Kd as the constant that tells how readily two partners part at equilibrium. By koff is commonly meant the rate constant with which the complex falls apart. A word on the kon: it is the rate constant with which the complex forms.

Source of the values: patent publication US20250277788A1 (GUIZHOU MEDICAL UNIVERSITY, published 2025).
